Assay results reported in patent CN114805559A (UNIV ZHEJIANG, dated 2022).

Target: 新型冠状病毒SARS-CoV-2受体结合域RBD重组蛋白 (pET-28a(+)/RBD, E. coli Rosetta) (SARS-CoV-2, UniProt P0DTC2 319-541)
Test: BLI (Fortebio), KD = Kdis/Kon

B1: 全人源抗新冠病毒受体结合域单链抗体No4 (purified recombinant scFv from pET-30a(+)/anti-RBD No4 in E. coli Rosetta) (scFv, not shown: small tags and cut ends)
scFv: RSSCRNPGGALVQPGGSLRLSCETSGFTFSRYWMNWFRQAPGKGLVWVSHISNNGRVTGYADSVKGRFTISRDNAKNILYLQMSGLRAEDTSLYYCARVHNAFCNSVSCVDAFDVWGQGTTVTVSSGGGGSGGGGSGGGGSDIVMTQTPSSLSASVGDRVTITCRASQRINSLLNWYQHKPGKPPKLLIYGASTLQSGVPSRFSGSESGADFTLTISSLQPEDVGTYYCQKYNSAPHTFGQGTRLEIK
notes: also called 抗RBD单链抗体No4; 抗RBD单链重组抗体No4
B1 was tested, and the Kd was 1.61 nM.
